Results: patent publication US20200299408A1 (Genentech, published 2020)
“And” between values parts separate entries of the source, which are not always exact repeats. Equal values may be shown once. Read-outs that look alike come from different tables or passages of the source. Each block holds one binder with its values, some of them ahead of it.

Key:
[1] = target: T1, commercial CD3ε (Creative Biomart, Catalog Number CD3E-2194H) (human, UniProt P07766); assay: binding affinity on commercial CD3ε (Creative Biomart CD3E-2194H); method not stated in the legend
T1 construct: commercial recombinant protein; also called commercial CD3E

[2] = target: T1, commercial CD3ε (Creative Biomart, …); assay: as above; remark: listed apart in the source
[3] = target: T2, human CD3 on T cells (human, UniProt P07766 22-207); assay: FACS on Jurkat cells (CD3), anti-huIgG-PE; number printed beside the curve without a quantity name, taken as EC50
T2 construct: whole, on cells; On cells CD3ε stands in the CD3/TCR complex; also called CD3 antigen; CD3ε
Protocol: (§1) Binding affinities for the each of the CD3/CD20 TDBs were tested by Biacore or FACS analysis, as described above for the anti-CD3 antibodies. Briefly, for Biacore binding assays, human CD3εγ was immobilized on Biacore Series S CM5 sensor chip using the amine coupling kit from Biacore and CD3/CD20 TDBs or Fab variants thereof were in the flow through. For FACS binding assays, either Bjab cells (for B cell antigens) or Jurkat cells (for CD3 antigen) were incubated with various concentrations of TDB antibodies at 4° C. for 30 minutes, then cells were washed and incubated with 2nd antibody (anti-huIgG-PE; BD Bioscience) for another 15 minutes, before cells were washed again and ready for FACS analysis.

[4] = target: T2, human CD3 on T cells; assay: as above; remark: listed apart in the source
Protocol: as §1

[5] = target: T2, human CD3 on T cells; assay: as above; remark: listed apart in the source
Protocol: as §1

[6] = target: T2, human CD3 on T cells; assay: Scatchard; table headed 'Bivalent Binding Affinity', though its footnote reads 'monovalent binding Kd measured by scatchard'; cells not named
[7] = target: T2, human CD3 on T cells; assay: Scatchard; table 'Monovalent Binding Affinity'; the partner arm is not given, the TDB is taken from legend paragraph 149, p-1410 and Figure 16; cells not named
[8] = target: T3, cyCD3εγ (cynomolgus monkey); assay: monovalent binding affinity, method not stated on the sheet
T3 chain 1: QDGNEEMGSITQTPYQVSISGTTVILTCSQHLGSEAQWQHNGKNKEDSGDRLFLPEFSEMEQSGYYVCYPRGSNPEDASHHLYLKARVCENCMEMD
T3 chain 2: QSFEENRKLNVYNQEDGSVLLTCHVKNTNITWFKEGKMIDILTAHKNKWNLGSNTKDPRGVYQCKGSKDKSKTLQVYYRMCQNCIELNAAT

[9] = target: T1, commercial CD3ε (Creative Biomart, …); assay: binding affinity on commercial CD3ε (Creative Biomart CD3E-2194H); method not stated in the legend; remark: listed apart in the source

B2: humanized 38E4 variant: VH1 graft + R71A / K4 graft + P43S (antibody, V domains shown)
VH: EVQLVQSGAEVKKPGASVKVSCKASGFTFTSYYIHWVRQAPGQGLEWIGWIYPENDNTKYNEKFKDRVTITADTSTSTAYLELSSLRSEDTAVYYCARDGYSRYYFDYWGQGTLVTVSS
VL: DIVMTQSPDSLAVSLGERATINCKSSQSLLNSRTRKNYLAWYQQKPGQSPKLLIYWTSTRKSGVPDRFSGSGSGTDFTLTISSLQAEDVAVYYCKQSFILRTFGQGTKVEIK
Kd [1]: 0.5 nM

B3: humanized 40G5c variant: VH1 graft + V67A + I69L + R71A / K4 graft (antibody, V domains shown)
VH: EVQLVQSGAEVKKPGASVKVSCKASGYTFTNYYIHWVRQAPGQGLEWIGWIYPGDGNTKYNEKFKGRATLTADTSTSTAYLELSSLRSEDTAVYYCARDSYSNYYFDYWGQGTLVTVSS
VL: DIVMTQSPDSLAVSLGERATINCKSSQSLLNSRTRKNYLAWYQQKPGQPPKLLIYWASTRESGVPDRFSGSGSGTDFTLTISSLQAEDVAVYYCTQSFILRTFGQGTKVEIK
Kd [2]: 24 nM

B4: KH CD20 2H7v16/hu40G5c (bispecific antibody, V domains shown)
VH 1: EVQLVESGGGLVQPGGSLRLSCAASGYTFTSYNMHWVRQAPGKGLEWVGAIYPGNGDTSYNQKFKGRFTISVDKSKNTLYLQMNSLRAEDTAVYYCARVVYYSNSYWYFDVWGQGTLVTVSS
VL 1: DIQMTQSPSSLSASVGDRVTITCRASSSVSYMHWYQQKPGKAPKPLIYAPSNLASGVPSRFSGSGSGTDFTLTISSLQPEDFATYYCQQWSFNPPTFGQGTKVEIK
VH 2: EVQLVQSGAEVKKPGASVKVSCKASGYTFTNYYIHWVRQAPGQGLEWIGWIYPGDGNTKYNEKFKGRATLTADTSTSTAYLELSSLRSEDTAVYYCARDSYSNYYFDYWGQGTLVTVSS
VL 2: DIVMTQSPDSLAVSLGERATINCKSSQSLLNSRTRKNYLAWYQQKPGQPPKLLIYWASTRESGVPDRFSGSGSGTDFTLTISSLQAEDVAVYYCTQSFILRTFGQGTKVEIK
modifications: Knob-into-hole full-length IgG; constant regions are not in the letters.
notes: also called KH CD20 2H7v16/40G5c; CD20KH (2H7v16/40G5c)
EC50 [3]: 1.21 µg/mL
EC50 [4]: 1.25 µg/mL and 8.3 nM
EC50 [5]: 1.6 µg/mL and 11 nM

B7: K&H 2H7v16/hu UCHT1vM1 (bispecific antibody, V domains shown)
VH 1: EVQLVESGGGLVQPGGSLRLSCAASGYTFTSYNMHWVRQAPGKGLEWVGAIYPGNGDTSYNQKFKGRFTISVDKSKNTLYLQMNSLRAEDTAVYYCARVVYYSNSYWYFDVWGQGTLVTVSS
VL 1: DIQMTQSPSSLSASVGDRVTITCRASSSVSYMHWYQQKPGKAPKPLIYAPSNLASGVPSRFSGSGSGTDFTLTISSLQPEDFATYYCQQWSFNPPTFGQGTKVEIK
VH 2: EVQLVESGGGLVQPGGSLRLSCAASGYSFTGYTMNWVRQAPGKGLEWVALINPYKGVSTYADSVKGRFTISVDKSKNTAYLQMNSLRAEDTAVYYCARSGYYGDSDWYFDVWGQGTLVTVSS
VL 2: DIQMTQSPSSLSASVGDRVTITCRASQDIRNYLNWYQQKPGKAPKLLIYYTSRLESGVPSRFSGSGSGTDYTLTISSLQPEDFATYYCQQGNTLPWTFGQGTKVEIK
modifications: Knob-into-hole full-length IgG; constant regions are not in the letters.
notes: also called CD3/CD20 TDB 2H7v16/UCHT1vM1
Kd [6]: 40 nM
Kd [7]: 318 nM

B8: CD20KH (2H7v16/21A9) (bispecific antibody, V domains shown)
VH 1: EVQLVESGGGLVQPGGSLRLSCAASGYTFTSYNMHWVRQAPGKGLEWVGAIYPGNGDTSYNQKFKGRFTISVDKSKNTLYLQMNSLRAEDTAVYYCARVVYYSNSYWYFDVWGQGTLVTVSS
VL 1: DIQMTQSPSSLSASVGDRVTITCRASSSVSYMHWYQQKPGKAPKPLIYAPSNLASGVPSRFSGSGSGTDFTLTISSLQPEDFATYYCQQWSFNPPTFGQGTKVEIK
VH 2: EVQLVESGGGVVQPGGSLKLSCAASGFTFSGSAMHWVRQASEKGLEWVGRIRSRANSYATAYAASVKDRFTISRDNSKNTAYLQMNSLKTEDTAVYYCIRDTMVRGIDYWGQGTLVTVSS
VL 2: not shown
modifications: Knob-into-hole full-length IgG; constant regions are not in the letters.
notes: also called CD3/CD20 TDB 2H7v16/21A9
EC50 [5]: 1.6 µg/mL and 11 nM

B9: K&H 2H7v16/hu UCHT1v1 (bispecific antibody, V domains shown)
VH 1: EVQLVESGGGLVQPGGSLRLSCAASGYTFTSYNMHWVRQAPGKGLEWVGAIYPGNGDTSYNQKFKGRFTISVDKSKNTLYLQMNSLRAEDTAVYYCARVVYYSNSYWYFDVWGQGTLVTVSS
VL 1: DIQMTQSPSSLSASVGDRVTITCRASSSVSYMHWYQQKPGKAPKPLIYAPSNLASGVPSRFSGSGSGTDFTLTISSLQPEDFATYYCQQWSFNPPTFGQGTKVEIK
VH 2: EVQLVESGGGLVQPGGSLRLSCAASGYSFTGYTMNWVRQAPGKGLEWVALINPYKGVTTYADSVKGRFTISVDKSKNTAYLQMNSLRAEDTAVYYCARSGYYGDSDWYFDVWGQGTLVTVSS
VL 2: DIQMTQSPSSLSASVGDRVTITCRASQDIRNYLNWYQQKPGKAPKLLIYYTSRLESGVPSRFSGSGSGTDYTLTISSLQPEDFATYYCQQGNTLPWTFGQGTKVEIK
modifications: Knob-into-hole full-length IgG; constant regions are not in the letters.
notes: also called CD3/CD20 TDB 2H7v16/UCHT1v1
Kd [6]: 300 nM

B10: SP34v52 Fab (Fab, V domains shown)
VH: EVQLVESGGGLVQPGGSLRLSCAASGFTFNTYAMNWVRQAPGKGLEWVARIRSKYNNYATYYADSVKDRFTISRDDSKNTLYLQMNSLRAEDTAVYYCVRHGNFGNSYVSWFAYWGQGTLVTVSS
VL: EAVVTQEPSLTVSPGGTVTLTCRSSTGAVTTSNYANWVQQKPGQAPRGLIGGTNKRAPWTPARFSGSLLGGKAALTLSGAQPEDEAEYYCALWYSNLWVFGGGTKLTVL
Kd [8]: 12 nM

Results, then the binder that gave them:

Kd [1]: 0.75 nM
B1: murine 38E4 (antibody, V domains shown)
VH: QVQLQQSGPELVKPGASVTISCTASGFTFTSYYIHWVRQRPGQGLEWIGWIYPENDNTKYNEKFKDKATLTADTSSSTAYMQLSSLTSEDSAVYYCARDGYSRYYFDYWGQGTTLTVSS
VL: DIVMTQSPSFLAVSAGEKVTMSCKSSQSLLNSRTRKNYLAWYQQRPGQSPKLLIYWTSTRKSGVPDRFTGSGSGTDFTLTISSVQAEDLAIYYCKQSFILRTFGGGTKLEIK

Kd [2]: 36 nM
B5: humanized 40G5c variant: VH1 graft + I69L + R71A / K4 graft (antibody, V domains shown)
VH: EVQLVQSGAEVKKPGASVKVSCKASGYTFTNYYIHWVRQAPGQGLEWIGWIYPGDGNTKYNEKFKGRVTLTADTSTSTAYLELSSLRSEDTAVYYCARDSYSNYYFDYWGQGTLVTVSS
VL: DIVMTQSPDSLAVSLGERATINCKSSQSLLNSRTRKNYLAWYQQKPGQPPKLLIYWASTRESGVPDRFSGSGSGTDFTLTISSLQAEDVAVYYCTQSFILRTFGQGTKVEIK

Kd [2]: 37 nM
B6: humanized 40G5c variant: VH1 graft + V67A + R71A / K4 graft (antibody, V domains shown)
VH: EVQLVQSGAEVKKPGASVKVSCKASGYTFTNYYIHWVRQAPGQGLEWIGWIYPGDGNTKYNEKFKGRATITADTSTSTAYLELSSLRSEDTAVYYCARDSYSNYYFDYWGQGTLVTVSS
VL: DIVMTQSPDSLAVSLGERATINCKSSQSLLNSRTRKNYLAWYQQKPGQPPKLLIYWASTRESGVPDRFSGSGSGTDFTLTISSLQAEDVAVYYCTQSFILRTFGQGTKVEIK

Kd [9]: 1.1 nM
B11: murine 41D9 (antibody, V domains shown)
VH: QIQLVQSGPELKKPGETVKISCKASGYTFTNYGMNWVKQAPGKGLKWMGWINTNTGKPTYAEEFKGRFVFSLETSASTTYLQINNLKNEDTATYFCARRGDYRYAWFLYWGQGTLVTVSA
VL: QAVVTQESALTTSPGGTVILTCRSSTGAVTTSNYANWVQEKPDHLFTGLIGGTSNRAPGVPVRFSGSLIGDKAALTITGAQTEDDAMYFCALWYSTHFVFGGGTKVTV
notes: also called 41D9a
